This experiment deals with BSA (UniProt P02769 25-607). Nature of the experiment: photocrosslinking with TAMRA-tagged adapter, reducing SDS-PAGE, fluorescence image.

Where no end group is shown, it is not given here.

B1: LASIC Protein G adapter with C-terminal STEPL peptide (TAMRA; TAMRA-DBCO; FAM-Azide; Biotin), BPA position not stated (designed binder)
chain: MTFKLIINGKTLKGEITIEAVDAAEAEKIFKQYANDYGIDGEWTYDDATKTFTVTE
modifications: also: BPA at unstated position, C-terminal Gly-Gly-Gly peptide carrying label (TAMRA, TAMRA-DBCO, FAM-azide or biotin)
notes: also called TAMRA dye-tagged LASIC adapter; TAMRA labeled Protein G adapter protein
In the case of B1, the binding result is recorded as “no binding”.
